Data reported in the supplement of paper PMC7877785.
± gives the uncertainty stated by the source.

Assay: self-splicing fitness, log relative to wild type (ln ratio); higher = more splicing; Tetrahymena group I intron in knt gene, E. coli kanamycin selection, DiMSum; sequences stand for … in CUCUCU…GGAGGGAAAAGUUAUCAGGCAUGCACCUGGUAGCUAGUCUUUAAACCAAUAGAUUGCAUCGGUUUAAAAGGCAAGACCGUCAAAUUGCGGGAAAGGGGUCAACAGCCGUUCAGUACCAAGUCUCAGGGGAAACUUUGAGAUGGCCUUGCAAAGGGUAUGGUAAUAAGCUGACGGACAUGGUCCUAACCACGCAGCCAAGUCCUAAGUCAACAGAUCUUCUGUUGAUAUGGAUGCAGUUCACAGACUAAAUGUCGGUCGGGGAAGAUGUAUUCUUCUCAUAAGAUAUAGUCGGACCUCUCCUUAAUGGGAGCUAGCGGAUGAAGUGAUGCAACACUGGAGCCGCUGGGAACUAAUUUGUAUGCGAAAGUAUAUUGAUUAGUUUUGGAGUACUCGUGGUCG
How it was run: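 Pooled colonies went to amplicon sequencing on an Illumina HiSeq 2500 after six replicate transformations. The plates were LB agar with 100 μg/mL carbenicillin, 50 μM IPTG and 0.2% rhamnose, with or without 25 μg/mL kanamycin, incubated overnight at 37°C or 30°C. The E. coli BL21(DE3) library had all eight P1ex-region intron nucleotides randomised, the intron placed in the knt kanamycin-resistance gene on pET-22b(+). DiMSum fitness is the error-weighted combination of replicate fold changes, kanamycin against none, normalised to wild type.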

Row | Sequence | self-splicing fitness (ln) (30 °C) | self-splicing fitness (ln) (37 °C)
1 | AGAGAGCAAUAUUACGAAAU | -3.71 ± 0.33 | -1.89 ± 0.24
2 | AGAGAGCAAUAUUACGAAUG | -2.07 ± 0.22 | -3.27 ± 0.47
3 | AGAGAGCAAUAUUACGAAUU | -1.19 ± 0.2 | -2.95 ± 0.32
4 | AGAGAGCAAUAUUACGAGGA | -2.71 ± 0.4 | -2.21 ± 0.34
5 | AGAGAGCAAUAUUACGAGGU | -2.98 ± 0.2 | -1.87 ± 0.32
6 | AGAGAGCAAUAUUACGAGUU | -4.21 ± 0.3 | -2.41 ± 0.2
7 | AGAGAGCAAUAUUACGAUAU | -2.21 ± 0.47 | -2.2 ± 0.43
8 | AGAGAGCAAUAUUACGCACG | -2.18 ± 0.38 | –
9 | AGAGAGCAAUAUUACGCAGU | – | -2.32 ± 0.35
10 | AGAGAGCAAUAUUACGCAUG | -3.23 ± 0.22 | -1.9 ± 0.35
11 | AGAGAGCAAUAUUACGCCGG | -1.82 ± 0.25 | –
12 | AGAGAGCAAUAUUACGCGCA | -3 ± 0.36 | -1.74 ± 0.14
13 | AGAGAGCAAUAUUACGCUAA | – | -0.209 ± 0.21
14 | AGAGAGCAAUAUUACGGAGU | -3.87 ± 0.4 | -3.3 ± 0.47
15 | AGAGAGCAAUAUUACGGAUU | -2.87 ± 0.2 | -2.57 ± 0.34
16 | AGAGAGCAAUAUUACGGCAA | – | -1.48 ± 0.4
17 | AGAGAGCAAUAUUACGGCGG | -2.77 ± 0.48 | –
18 | AGAGAGCAAUAUUACGGCUA | -1.86 ± 0.46 | -2.19 ± 0.39
19 | AGAGAGCAAUAUUACGGGAA | -4.12 ± 0.35 | -2.62 ± 0.28
20 | AGAGAGCAAUAUUACGGUAG | -1.46 ± 0.12 | -2.18 ± 0.19
21 | AGAGAGCAAUAUUACGUAAC | – | -3.26 ± 0.31

Row | Sequence | self-splicing fitness (ln) (30 °C) | self-splicing fitness (ln) (37 °C)
22 | AGAGAGCAAUAUUACGUCCU | -2.25 ± 0.12 | -0.89 ± 0.13
23 | AGAGAGCAAUAUUACGUCUU | -2.88 ± 0.19 | -2 ± 0.18
24 | AGAGAGCAAUAUUACGUUAG | -2.77 ± 0.19 | -2.45 ± 0.29
25 | AGAGAGCAAUAUUACGUUUU | -3.68 ± 0.35 | –
26 | AGAUAGCAAUAUUACGACUC | -0.641 ± 0.12 | -0.0202 ± 0.21
27 | AGAUAGCAAUAUUACGAGGA | -2.21 ± 0.21 | -2.65 ± 0.48
28 | AGAUAGCAAUAUUACGAGGG | -3.73 ± 0.41 | -1.77 ± 0.33
29 | AGAUAGCAAUAUUACGAUCC | -1.68 ± 0.38 | -0.656 ± 0.39
30 | AGAUAGCAAUAUUACGAUUA | -0.68 ± 0.15 | -0.852 ± 0.14
31 | AGAUAGCAAUAUUACGCCAA | -2.98 ± 0.38 | -3.38 ± 0.37
32 | AGAUAGCAAUAUUACGCCAU | -2.38 ± 0.12 | -1.27 ± 0.13
33 | AGAUAGCAAUAUUACGCCUA | -1.21 ± 0.099 | -1.29 ± 0.13
34 | AGAUAGCAAUAUUACGCGUG | -1.44 ± 0.1 | -1.01 ± 0.12
35 | AGAUAGCAAUAUUACGCUGA | -1.79 ± 0.14 | -0.681 ± 0.17
36 | AGAUAGCAAUAUUACGGAAG | -3.57 ± 0.22 | -2.02 ± 0.19
37 | AGAUAGCAAUAUUACGGAUA | -4.2 ± 0.42 | -1.23 ± 0.23
38 | AGAUAGCAAUAUUACGGCUG | -0.377 ± 0.12 | -0.792 ± 0.2
39 | AGAUAGCAAUAUUACGGGAA | -3 ± 0.27 | -2.7 ± 0.25
40 | AGAUAGCAAUAUUACGGGCG | -1.16 ± 0.14 | 0.433 ± 0.15
41 | AGAUAGCAAUAUUACGGUAU | -1.43 ± 0.098 | -0.614 ± 0.1
